Reference: publication PMC4134374

How the values were obtained:
[1] = target: TMR-labelled wt H4-tail peptide; experiment: fluorescence polarisation
[2] = target: TMR-labelled 2RA H4-tail peptide; experiment: fluorescence polarisation

Kd [1] [nM] | Kd [2] [nM] | Substance
3 | 41 | wt Acf1 (accessory subunit of human ACF), isolated (from UniProt Q9NRL2 1-1556) (natural protein)
2 | – | ΔC-term Acf1 (residues 1423-1556 deleted) (from UniProt Q9NRL2 1-1422) (domain or fragment)
